The supplement of paper PMC7125110
± gives the standard error. For some assays here: This sample holds only a part of the variants without activity.

B1: glmS ribozyme (parent)
chain: AUAAAAGCGCCAGAACUACAGAAAUGUAGUUGACGAGGAGGAGGUUUAUCGAAUUUUCGGCGGAUGCCUCCAAA

What was measured:
Settings in all cases: with glucosamine-6-phosphate
glucosamine-6-phosphate [1] = variants of: B1; assay: kcat; higher = faster cleavage; RNA array
Method in brief: (§1)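 E. coli RNA polymerase transcribed barcoded ribozyme variants in situ on sequenced MiSeq chips, which were tracked via a hybridised Cy3 probe at 37 °C. Tiles were imaged over ~14 h after glucosamine-6-phosphate (40 μM to 10 mM) in HEPES/KCl/Mg(OAc)2 buffer was flowed in. Normalised per-tile medians were fit to one- or two-exponential decays for kobs, and kcat and KM came from weighted Michaelis–Menten fits.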

glucosamine-6-phosphate [2] = variants of: B1; assay: self-cleavage kobs at 40 uM GlcN6P; higher = faster cleavage; RNA array
Method in brief: as §1

glucosamine-6-phosphate [3] = variants of: B1; assay: self-cleavage kobs at 160 uM GlcN6P; higher = faster cleavage; RNA array
Method in brief: as §1

glucosamine-6-phosphate [4] = variants of: B1; assay: self-cleavage kobs at 640 uM GlcN6P; higher = faster cleavage; RNA array
Method in brief: as §1

glucosamine-6-phosphate [5] = variants of: B1; assay: self-cleavage kobs at 2500 uM GlcN6P; higher = faster cleavage; RNA array
Method in brief: as §1

glucosamine-6-phosphate [6] = variants of: B1; assay: self-cleavage kobs at 10000 uM GlcN6P; higher = faster cleavage; RNA array
Method in brief: as §1

glucosamine-6-phosphate [7] = variants of: B1; assay: KM; higher = weaker cofactor use; RNA array
Method in brief: as §1

Variant | kcat (glucosamine-6-phosphate [1]) [s⁻¹] | self-cleavage kobs at 40 uM GlcN6P (glucosamine-6-phosphate [2]) [s⁻¹] | self-cleavage kobs at 160 uM GlcN6P (glucosamine-6-phosphate [3]) [s⁻¹] | self-cleavage kobs at 640 uM GlcN6P (glucosamine-6-phosphate [4]) [s⁻¹] | self-cleavage kobs at 2500 uM GlcN6P (glucosamine-6-phosphate [5]) [s⁻¹] | self-cleavage kobs at 10000 uM GlcN6P (glucosamine-6-phosphate [6]) [s⁻¹] | KM (glucosamine-6-phosphate [7]) [µM]
G38U G51U | < 1e-05 |  |  |  |  |  | 
A39U A64G | 0.031 ± 0.012 | 0.000447 ± 5.6e-05 | 0.00134 ± 0.00017 | 0.00498 ± 0.0006 | 0.0101 ± 0.0015 | 0.0327 ± 0.0047 | 
G40U A42C | 1.23e-05 ± 9.1e-08 |  |  |  |  |  | 2280 ± 50
G40U A64G | 0.000292 ± 2.9e-05 |  |  | 8.19e-05 ± 1.2e-05 | 0.000145 ± 2.8e-05 | 0.00026 ± 3.3e-05 | 1790 ± 360
A39C A64C | 4.47e-05 ± 2.7e-06 |  | < 1e-05 |  | 4.35e-05 ± 1.6e-05 | 4.27e-05 ± 1.3e-05 | 
A39C C68U | 0.000495 ± 6.5e-05 | 2.73e-05 ± 7e-06 | 6.25e-05 ± 1.3e-05 | 0.000159 ± 1.7e-05 | 0.000367 ± 5.1e-05 | 0.000445 ± 4.9e-05 | 1180 ± 300
G41A C70G | 0.000368 ± 0.00014 | 4.43e-05 ± 8e-06 | 6.45e-05 ± 1.1e-05 | 0.000156 ± 1.6e-05 | 0.000332 ± 4e-05 |  | 
A39G U45G | 0.0109 ± 0.0044 | 0.00047 ± 6.3e-05 | 0.00207 ± 0.00047 | 0.00416 ± 0.00099 | 0.00467 ± 0.0013 | 0.0173 ± 0.0023 | 
G40U A48G | 8.97e-05 ± 4.3e-05 | < 1e-05 |  |  |  | 3.18e-05 ± 8.1e-06 | 
G40C A64G | 0.00107 ± 0.00027 |  | 4.29e-05 ± 1.9e-05 |  | 0.000837 ± 0.00017 | 0.000811 ± 9.3e-05 | 
A39U U47G | 0.00519 ± 0.00052 | 0.000119 ± 1.7e-05 | 0.000358 ± 4.8e-05 | 0.00132 ± 0.00018 | 0.00285 ± 0.00052 | 0.00439 ± 0.00057 | 1940 ± 270
A39U U47A | 0.0219 ± 0.0045 | 0.000309 ± 3.8e-05 | 0.000791 ± 0.00013 | 0.00397 ± 0.00055 | 0.00871 ± 0.0017 | 0.0166 ± 0.002 | 3320 ± 900
A39C G43U C68U | 9.32e-05 ± 1.5e-05 |  |  |  | 5.95e-05 ± 1.4e-05 | 7.63e-05 ± 1.8e-05 | 1780 ± 810
G40A U56G | 0.0035 ± 0.00093 | 6e-05 ± 1.3e-05 | 0.000189 ± 3e-05 | 0.000577 ± 7.7e-05 | 0.00224 ± 0.00044 | 0.00256 ± 0.00054 | 2840 ± 950
G38C G51C | 1.04e-05 ± 4.5e-06 |  |  |  |  |  | 
G38U G66C C71U | 1.04e-05 ± 1e-06 |  |  |  |  |  | 
G40U C58A | 0.000609 ± 4.4e-05 | < 1e-05 | < 1e-05 |  |  | 3.81e-05 ± 9.5e-06 | 
